Target: EstN7, cold active family IV (hormone sensitive lipase family) esterase from Bacillus cohnii strain N1 (Bacillus cohnii strain N1)
Assay: SEC; size exclusion chromatography of purified EstN7 in solution (supplementary figure S1)

stoichiometry N: 2
Substance: EstN7, cold active family IV (hormone sensitive lipase family) esterase from Bacillus cohnii strain N1 (enzyme)
